T1: Med23 (human, UniProt Q9ULK4 1-1368)
T1 sequence: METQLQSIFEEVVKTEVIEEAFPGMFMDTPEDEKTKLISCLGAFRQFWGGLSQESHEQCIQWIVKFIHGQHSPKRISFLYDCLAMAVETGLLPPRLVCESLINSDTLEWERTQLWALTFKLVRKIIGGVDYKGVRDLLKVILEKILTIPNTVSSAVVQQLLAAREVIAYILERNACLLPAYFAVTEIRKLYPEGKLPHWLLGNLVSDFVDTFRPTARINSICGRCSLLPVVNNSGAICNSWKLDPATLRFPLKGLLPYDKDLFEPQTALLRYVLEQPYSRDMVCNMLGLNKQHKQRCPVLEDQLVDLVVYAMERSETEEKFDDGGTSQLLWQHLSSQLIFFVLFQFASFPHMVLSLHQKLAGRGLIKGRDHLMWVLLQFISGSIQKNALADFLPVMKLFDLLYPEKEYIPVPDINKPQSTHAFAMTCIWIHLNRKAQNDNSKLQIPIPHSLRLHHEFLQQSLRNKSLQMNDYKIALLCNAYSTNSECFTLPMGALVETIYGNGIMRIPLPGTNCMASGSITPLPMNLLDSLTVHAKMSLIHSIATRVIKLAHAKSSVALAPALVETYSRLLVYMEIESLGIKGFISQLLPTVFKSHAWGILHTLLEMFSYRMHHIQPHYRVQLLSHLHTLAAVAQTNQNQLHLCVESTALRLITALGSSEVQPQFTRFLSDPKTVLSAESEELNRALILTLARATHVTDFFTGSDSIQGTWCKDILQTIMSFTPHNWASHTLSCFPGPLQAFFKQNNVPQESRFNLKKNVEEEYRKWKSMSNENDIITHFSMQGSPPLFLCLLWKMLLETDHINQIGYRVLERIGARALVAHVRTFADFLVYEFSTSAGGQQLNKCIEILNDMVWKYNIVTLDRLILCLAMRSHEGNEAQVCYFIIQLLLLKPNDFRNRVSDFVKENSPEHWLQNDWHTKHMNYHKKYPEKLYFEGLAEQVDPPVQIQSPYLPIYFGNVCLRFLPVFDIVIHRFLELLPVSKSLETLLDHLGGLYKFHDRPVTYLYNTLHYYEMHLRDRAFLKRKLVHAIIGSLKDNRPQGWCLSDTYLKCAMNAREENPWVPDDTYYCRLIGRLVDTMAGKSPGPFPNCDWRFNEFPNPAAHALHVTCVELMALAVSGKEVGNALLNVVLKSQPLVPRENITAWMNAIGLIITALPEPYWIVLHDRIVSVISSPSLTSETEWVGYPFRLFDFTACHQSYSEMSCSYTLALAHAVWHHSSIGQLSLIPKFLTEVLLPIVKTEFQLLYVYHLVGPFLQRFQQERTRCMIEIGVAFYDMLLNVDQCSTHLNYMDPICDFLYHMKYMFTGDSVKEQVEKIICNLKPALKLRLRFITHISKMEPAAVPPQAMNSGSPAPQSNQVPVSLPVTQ


What was measured:
Experiment in all cases: cryo-EM structure
Med1 = Med1 (human, UniProt Q15648 1-1581)
Med23 = biological target: T1, Med23
[1] = biological target: RPB1, the largest subunit of RNA polymerase II (human, UniProt P24928 1-1970)
Med14 = Med14 (human, UniProt O60244 1-1454)
Med14, sequence (O60244 whole entry): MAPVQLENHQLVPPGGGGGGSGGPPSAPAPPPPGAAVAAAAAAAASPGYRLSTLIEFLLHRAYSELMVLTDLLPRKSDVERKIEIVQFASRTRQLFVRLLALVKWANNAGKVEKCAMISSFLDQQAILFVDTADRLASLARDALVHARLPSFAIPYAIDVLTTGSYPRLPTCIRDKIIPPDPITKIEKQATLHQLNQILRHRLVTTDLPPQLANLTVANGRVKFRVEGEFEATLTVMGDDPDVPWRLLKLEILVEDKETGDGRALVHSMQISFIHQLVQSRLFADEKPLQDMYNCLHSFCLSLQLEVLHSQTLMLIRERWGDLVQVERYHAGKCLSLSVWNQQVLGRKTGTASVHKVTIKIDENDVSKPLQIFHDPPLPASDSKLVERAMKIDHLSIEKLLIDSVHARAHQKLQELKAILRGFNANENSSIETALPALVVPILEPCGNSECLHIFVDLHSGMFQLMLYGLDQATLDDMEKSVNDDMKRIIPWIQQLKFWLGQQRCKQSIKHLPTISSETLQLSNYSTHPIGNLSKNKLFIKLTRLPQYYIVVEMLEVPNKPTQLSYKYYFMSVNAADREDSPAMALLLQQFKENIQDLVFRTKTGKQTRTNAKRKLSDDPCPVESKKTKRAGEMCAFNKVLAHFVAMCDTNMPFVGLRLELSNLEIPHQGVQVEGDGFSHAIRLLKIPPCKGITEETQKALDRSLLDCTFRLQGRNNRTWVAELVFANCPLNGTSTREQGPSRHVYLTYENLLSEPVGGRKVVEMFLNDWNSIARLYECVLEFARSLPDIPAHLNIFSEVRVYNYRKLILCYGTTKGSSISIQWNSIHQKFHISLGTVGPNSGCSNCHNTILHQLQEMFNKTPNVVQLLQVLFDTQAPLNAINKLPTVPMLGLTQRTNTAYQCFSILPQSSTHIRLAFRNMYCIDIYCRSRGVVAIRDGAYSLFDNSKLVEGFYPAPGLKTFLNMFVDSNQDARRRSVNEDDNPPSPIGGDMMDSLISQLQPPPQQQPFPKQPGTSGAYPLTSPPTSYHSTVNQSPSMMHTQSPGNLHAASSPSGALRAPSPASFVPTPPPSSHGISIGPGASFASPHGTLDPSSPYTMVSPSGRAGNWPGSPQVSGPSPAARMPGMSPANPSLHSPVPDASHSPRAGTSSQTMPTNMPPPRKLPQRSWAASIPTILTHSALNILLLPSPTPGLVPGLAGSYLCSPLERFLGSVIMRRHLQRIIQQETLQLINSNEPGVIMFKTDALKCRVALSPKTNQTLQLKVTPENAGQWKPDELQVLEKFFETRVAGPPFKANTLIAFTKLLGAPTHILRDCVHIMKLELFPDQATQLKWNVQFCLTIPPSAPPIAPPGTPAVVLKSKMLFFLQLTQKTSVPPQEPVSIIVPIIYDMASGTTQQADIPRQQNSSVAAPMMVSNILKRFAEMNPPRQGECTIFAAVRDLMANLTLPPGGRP

Med1, sequence (Q15648 whole entry): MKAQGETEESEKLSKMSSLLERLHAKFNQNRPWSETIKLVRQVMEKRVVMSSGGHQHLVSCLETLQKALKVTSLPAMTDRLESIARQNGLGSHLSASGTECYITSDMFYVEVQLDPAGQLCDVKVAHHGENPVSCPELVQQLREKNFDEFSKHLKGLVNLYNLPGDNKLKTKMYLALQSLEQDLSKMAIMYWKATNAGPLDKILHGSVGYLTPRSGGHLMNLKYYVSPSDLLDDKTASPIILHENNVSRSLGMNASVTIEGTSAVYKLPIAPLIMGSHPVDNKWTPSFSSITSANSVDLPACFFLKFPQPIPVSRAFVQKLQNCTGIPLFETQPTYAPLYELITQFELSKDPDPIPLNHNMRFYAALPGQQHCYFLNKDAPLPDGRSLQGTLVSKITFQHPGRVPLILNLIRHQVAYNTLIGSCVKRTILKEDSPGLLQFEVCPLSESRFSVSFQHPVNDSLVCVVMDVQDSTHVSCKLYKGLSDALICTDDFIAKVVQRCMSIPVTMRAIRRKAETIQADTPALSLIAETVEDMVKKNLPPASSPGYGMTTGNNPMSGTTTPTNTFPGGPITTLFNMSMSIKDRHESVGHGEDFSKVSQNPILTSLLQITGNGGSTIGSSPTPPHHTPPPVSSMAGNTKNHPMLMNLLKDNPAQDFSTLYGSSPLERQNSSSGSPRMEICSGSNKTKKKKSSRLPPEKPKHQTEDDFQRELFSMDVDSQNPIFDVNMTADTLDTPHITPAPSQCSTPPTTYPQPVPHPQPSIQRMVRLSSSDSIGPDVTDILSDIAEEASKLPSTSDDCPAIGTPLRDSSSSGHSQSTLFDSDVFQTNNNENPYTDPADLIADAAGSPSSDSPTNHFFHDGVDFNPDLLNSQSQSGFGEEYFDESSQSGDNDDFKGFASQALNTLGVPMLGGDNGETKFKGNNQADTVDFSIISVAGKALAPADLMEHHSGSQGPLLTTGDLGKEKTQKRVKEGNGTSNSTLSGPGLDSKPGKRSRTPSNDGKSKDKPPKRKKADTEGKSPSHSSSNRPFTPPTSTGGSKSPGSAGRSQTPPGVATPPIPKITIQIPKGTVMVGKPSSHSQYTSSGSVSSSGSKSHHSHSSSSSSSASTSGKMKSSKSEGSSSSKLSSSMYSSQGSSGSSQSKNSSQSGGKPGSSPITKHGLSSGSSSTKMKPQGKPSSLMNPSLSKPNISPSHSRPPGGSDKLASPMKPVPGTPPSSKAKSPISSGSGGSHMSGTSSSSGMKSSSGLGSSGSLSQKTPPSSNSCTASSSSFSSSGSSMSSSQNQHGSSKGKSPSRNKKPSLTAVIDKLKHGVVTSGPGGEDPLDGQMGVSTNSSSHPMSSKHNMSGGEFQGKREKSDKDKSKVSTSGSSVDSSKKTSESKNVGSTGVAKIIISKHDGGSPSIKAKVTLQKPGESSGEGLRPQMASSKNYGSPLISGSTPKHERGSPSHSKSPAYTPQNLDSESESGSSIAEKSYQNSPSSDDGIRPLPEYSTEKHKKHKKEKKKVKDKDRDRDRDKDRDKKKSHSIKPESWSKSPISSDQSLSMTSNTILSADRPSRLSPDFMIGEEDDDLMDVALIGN

Binder | binding result (Med1) | further results
Med24 (natural protein, human) MKVVNLKQAILQAWKERWSDYQWAINMKKFFPKGATWDILNLADALLEQAMIGPSPNPLILSYLKYAISSQMVSYSSVLTAISKFDDFSRDLCVQALLDIMDMFCDRLSCHGKAEECIGLCRALLSALHWLLRCTAASAERLREGLEAGTPAAGEKQLAMCLQRLEKTLSSTKNRALLHIAKLEEASSWTAIEHSLLKLGEILANLSNPQLRSQAEQCGTLIRSIPTMLSVHAEQMHKTGFPTVHAVILLEGTMNLTGETQSLVEQLTMVKRMQHIPTPLFVLEIWKACFVGLIESPEGTEELKWTAFTFLKIPQVLVKLKKYSHGDKDFTEDVNCAFEFLLKLTPLLDKADQRCNCDCTNFLLQECGKQGLLSEASVNNLMAKRKADREHAPQQKSGENANIQPNIQLILRAEPTVTNILKTMDADHSKSPEGLLGVLGHMLSGKSLDLLLAAAAATGKLKSFARKFINLNEFTTYGSEESTKPASVRALLFDISFLMLCHVAQTYGSEVILSESRTGAEVPFFETWMQTCMPEEGKILNPDHPCFRPDSTKVESLVALLNNSSEMKLVQMKWHEACLSISAAILEILNAWENGVLAFESIQKITDNIKGKVCSLAVCAVAWLVAHVRMLGLDEREKSLQMIRQLAGPLFSENTLQFYNERVVIMNSILERMCADVLQQTATQIKFPSTGVDTMPYWNLLPPKRPIKEVLTDIFAKVLEKGWVDSRSIHIFDTLLHMGGVYWFCNNLIKELLKETRKEHTLRAVELLYSIFCLDMQQVTLVLLGHILPGLLTDSSKWHSLMDPPGTALAKLAVWCALSSYSSHKGQASTRQKKRHREDIEDYISLFPLDDVQPSKLMRLLSSNEDDANILSSPTDRSMSSSLSASQLHTVNMRDPLNRVLANLFLLISSILGSRTAGPHTQFVQWFMEECVDCLEQGGRGSVLQFMPFTTVSELVKVSAMSSPKVVLAITDLSLPLGRQVAAKAIAAL | binds | 
Med25 (natural protein, human) MVPGSEGPARAGSVVADVVFVIEGTANLGPYFEGLRKHYLLPAIEYFNGGPPAETDFGGDYGGTQYSLVVFNTVDCAPESYVQCHAPTSSAYEFVTWLDGIKFMGGGGESCSLIAEGLSTALQLFDDFKKMREQIGQTHRVCLLICNSPPYLLPAVESTTYSGCTTENLVQQIGERGIHFSIVSPRKLPALRLLFEKAAPPALLEPLQPPTDVSQDPRHMVLVRGLVLPVGGGSAPGPLQSKQPVPLPPAAPSGATLSAAPQQPLPPVPPQYQVPGNLSAAQVAAQNAVEAAKNQKAGLGPRFSPITPLQQAAPGVGPPFSQAPAPQLPPGPPGAPKPPPASQPSLVSTVAPGSGLAPTAQPGAPSMAGTVAPGGVSGPSPAQLGAPALGGQQSVSNKLLAWSGVLEWQEKPKPASVDANTKLTRSLPCQVYVNHGENLKTEQWPQKLIMQLIPQQLLTTLGPLFRNSRMVQFHFTNKDLESLKGLYRIMGNGFAGCVHFPHTAPCEVRVLMLLYSSKKKIFMGLIPYDQSGFVNGIRQVITNHKQVQQQKLEQQQRGMGGQQAPPGLGPILEDQARPSQNLLQLRPPQPQPQGTVGASGATGQPQPQGTAQPPPGAPQGPPGAASGPPPPGPILRPQNPGANPQLRSLLLNPPPPQTGVPPPQASLHHLQPPGAPALLPPPHQGLGQPQLGPPLLHPPPAQSWPAQLPPRAPLPGQMLLSGGPRGPVPQPGLQPSVMEDDILMDLI |  | binding result (Med23): binds
Med4 (natural protein, human) MAASSSGEKEKERLGGGLGVAGGNSTRERLLSALEDLEVLSRELIEMLAISRNQKLLQAGEENQVLELLIHRDGEFQELMKLALNQGKIHHEMQVLEKEVEKRDSDIQQLQKQLKEAEQILATAVYQAKEKLKSIEKARKGAISSEEIIKYAHRISASNAVCAPLTWVPGDPRRPYPTDLEMRSGLLGQMNNPSTNGVNGHLPGDALAAGRLPDVLAPQYPWQSNDMSMNMLPPNHSSDFLLEPPGHNKENEDDVEIMSTDSSSSSSESD | binds | 
Med31 (natural protein) MAAAVAMETDDAGNRLRFQLELEFVQCLANPNYLNFLAQRGYFKDKAFVNYLKYLLYWKDPEYAKYLKYPQCLHMLELLQYEHFRKELVNAQCAKFIDEQQILHWQHYSRKRMRLQQALAEQQQQNNTSGK |  | binding result [1]: binds
Med9 (natural protein, human) MASAGVAAGRQAEDVLPPTSDQPLPDTKPLPPPQPPPVPAPQPQQSPAPRPQSPARAREEENYSFLPLVHNIIKCMDKDSPEVHQDLNALKSKFQEMRKLISTMPGIHLSPEQQQQQLQSLREQVRTKNELLQKYKSLCMFEIPKE | binds | 
Med17 (natural protein, human) MSGVRAVRISIESACEKQVHEVGLDGTETYLPPLSMSQNLARLAQRIDFSQGSGSEEEEAAGTEGDAQEWPGAGSSADQDDEEGVVKFQPSLWPWDSVRNNLRSALTEMCVLYDVLSIVRDKKFMTLDPVSQDALPPKQNPQTLQLISKKKSLAGAAQILLKGAERLTKSVTENQENKLQRDFNSELLRLRQHWKLRKVGDKILGDLSYRSAGSLFPHHGTFEVIKNTDLDLDKKIPEDYCPLDVQIPSDLEGSAYIKVSIQKQAPDIGDLGTVNLFKRPLPKSKPGSPHWQTKLEAAQNVLLCKEIFAQLSREAVQIKSQVPHIVVKNQIISQPFPSLQLSISLCHSSNDKKSQKFATEKQCPEDHLYVLEHNLHLLIREFHKQTLSSIMMPHPASAPFGHKRMRLSGPQAFDKNEINSLQSSEGLLEKIIKQAKHIFLRSRAAATIDSLASRIEDPQIQAHWSNINDVYESSVKVLITSQGYEQICKSIQLQLNIGVEQIRVVHRDGRVITLSYQEQELQDFLLSQMSQHQVHAVQQLAKVMGWQVLSFSNHVGLGPIESIGNASAITVASPSGDYAISVRNGPESGSKIMVQFPRNQCKDLPKSDVLQDNKWSHLRGPFKEVQWNKMEGRNFVYKMELLMSALSPCLL |  | binding result (Med14): binds

Reference: paper PMC8117670 (Science (New York, N.Y.), 2021)
